Measurements taken from the DeepSol protein solubility set.

Experiment: soluble on expression in E. coli; label from the status in PepcDB or PDB records

Row | Sequence | soluble on expression in E. coli
1 | MKSTEVKGSVSDATDFLVPLPPKSVNEKILNPAILTLFIPQIKAVSSIRERIYLLRIKWVISWDTPLTVYSVKLDDNRYIARYYASQKIPLFVVSFGFDFYIMSEGTGSRIKMKEWYKGPFKQLAKGEIEKHLKKAKEVLPEFLIKILEHHHHHH | soluble
2 | MQHLDLQVVRKALKWSVGGERVWFCTVLTTYGSAPRAPGSLLAVNASGEWIGSLSGGCVEDDFLERVAAGGFPDPAVIVRYGEGDDPNSNIRLPCGGILDVLVENLAPDCDVQAHLRELESALLGQRRLLREVELGSGARSLRDDSSHGPRAERDGECVRLRVGAAQRLLLAGYSSVAHACAEFGKGLGFEVILCDPREEALRGVVLEGIEIRRELPSLFIADGGCHADTAVVALTHDPKIDDLAMLEAVRTEAFYIGVMGSRATSEKRFERLRRIGGLGDAELARIHAPIGLNLGSKTPAEIALAVLADILRIRNGIPRERL | not soluble
3 | MSADYSSEKFKATHLFDEILWHFRSNLSLKTNRRGLATAENSFSGKEAVDFLMIEMPRIIPNNVPERDKMQKFLEFMMDMNVISEAFPKKVKQRRPFSESRIYLFMKTLDELKHPKPRSRRSASFSGARKSAKVAQPASPAATMHRPPKARLPRRLSRSNGNIDKAGIDNSSGGVENHGFDDHKDDEIPKKQRTPKILNRSLESICTEEYTEKREVSEMKEKVYDWLPFFKSRRNHTKVNQPTRRSASLDRNHCVLEQEKAEAALRSQKVTTPPIREAPKDVVFMHPQGPLPAVPSRYQNHRTSIAGSNPALLSRGRMYESIMRRSSVVPVADSVQANNECSFWKTELLGRLEQIYDRTLPCEWASKVDGYDIQWNMIEIDHADGIVKSRCQGLQPDYPQTVIQFMDYLVRYPFVTHKKMDTGLEYNVNRIFITLVNRLEDLNAPLQFDECSLIVNLLCKIDSFAAMLDNGPARRWSKVMISSSASSIEEAGLMVDGFSRDLPACGIRASKYRRRALSPFDNRVNLEIQDEKSYEIREQWLIEAIQLVLLSLPTSRRRKLHKFVTFIQSIETNAVFDLADPSNGSSNNREAAIIGLWTGVCSKCRKQQGMLITAVLLANFQSLFAVPVEFIEQVKRLECEEKDRYSGPRYAKITRSRNDWQPPVPDKPQASPAVFKKPLREVACEKTKKGLFTRLLRK | not soluble
4 | AVPSPPPASPRSQYNFIADVVEKTAPAVVYIEILDRHPFLGREVPISNGSGFVVAADGLIVTNAHVVADRRRVRVRLLSGDTYEAVVTAVDPVADIATLRIQTKEPLPTLPLGRSADVRQGEFVVAMGSPFALQNTITSGIVSSAQRPARDLGLPQTNVEYIQTDAAIDFGNAGGPLVNLDGEVIGVNTMKVTAGISFAIPSDRLREFLHRGEKKNSSSGISGSQRRYIGVMMLTLSPSILAELQLREPSFPDVQHGVLIHKVILGSPAHRAGLRPGDVILAIGEQMVQNAEDVYEAVRTQSQLAVQIRRGRETLTLYVTPEVTE | soluble
5 | APVNWGPGETNDSTTVEPVLDGPYQPTTFNPPVDYWMLLAPTAAGVVVEGTNNTDRWLATILVEPNVTSETRSYTLFGTQEQITIANASQTQWKFIDVVKTTQNGSYSQYGPLQSTPKLYAVMKHNGKIYTYNGETPNVTTKYYSTTNYDSVNMTAFCDFYIIPREEESTCTEYINNGLPPIQNTR | soluble
6 | GPGSMEEQDQRKPNGGNNGLPVPPSTTETGQGPLQDILGRTPNCQYVKKRLLGQGSFGSAWRVEESATGNVFAAKVMDLNNMSEKDRGFVTNEVKCLSRCCNPHVVRCENAIEREGQLLIVMEYADGGDLYKQIKARVREMKFFREHEVVFIFLQLCLALDHIHSNKMMHRDLKTANILLTTTGLVKLGDFGFSRQYEDSLSNAVGSTFCGTPYYLSPELWHRQPYSKKSEMWALGVVLYEVMALRRPFTGKNMDELITNICHGRCSDLPSSYSASLRDVCNRLLSVDPNTRPTIHELFHEPFIRSNLETLKRSVEKHNRIPADVREAIARCITQSLNTEEPPAHLEEPEPLIGTVKRHTALRGWQKCLLSFDEKQISIRDPSGVDPEEVVPVATLTSVCPIDVMMAGEEFVFAMKNQAGKAFWFMAPSQRAYEQWLTTLQEAAP | soluble
7 | MKVAFVIRKDCKRCATIAKSIIELIPPDWEKIYDTEAAKFLGGVGKDITEISADIIIAIGGDGTVLRILQNAKGPVLGINMGGLGFLTEIEIDEVGSSTYKLIRGEYKINEAMKLKVYINGRRLEDCTNEAVVHTDRIARIRQFKIYVDGHFLTTIKSDGVIVATPTGSSSYSSSAGGPLLLPTVRGMVISYLAPYSSRIKPVVVPSESTVEIKIAGNDQDSLLILDGQKEYKIKSGDTVSISMSEEKARFVSFRESIYDRLRDKVIKHVVN | soluble
8 | MLYREHHSWIYTWLYRRLGNSADAADLAQDTFIRVITRKSLLEIEQPRAYLTTVAKSLMLNWFNRRNIEQAYLEVLANQPEFEHPSPEQRYLIVETLIEVIQLLDTLPDQIRDVFLHAQLENMNYQQIADQFNLSLSTVKRHIKKAYIHCLTAMLDTDFSC | not soluble
9 | MSLRGESSGLMAYKAEDIYFTLFNGLHGSAHGHASTGGFTLQLQGDDLFSDSGRYSYVNKSERLQLKECASHNTMFIAENPHTLVSDTWGYDKLPTPLFQQIKELSVGFFAECGWLDKADQNPMIFERSFIYLKSINSVVIIDSFAGQKETEITSTYNLAPSINCQKEAHRFALTTNKHKYTLLFAGGQTQQSVAKGSEIYNQLNEHPRLSNKFCYKTGKEIQATVISPLEDIQITPIKVSQTGENEQFCQAKGFRIIAGSEKFDLFVMREDIVKGNKLLVSEYGQFFYGRLVLIDQKEAKIRIKEGHHHHHH | soluble
10 | MGSDKIHHHHHHLFLNSLKLKDFRNYKSLQVDFSNSINVLIGDNAQGKTNLLEAIYILSMARSHRDNNDRDLINWSSDFSDITGEVQSKMGKFPLEVRITRTGKKVFVNHLTENRLSDYIGNLHTVLFAPEDLDLVKGSPGVRRKFIDSEFGQMSANYLFNLLQYRSVLKNRNAYLKNIKWIGNNPKIDEDYLKVLNDQLIDFGSEIIFQRFVLVKELEKYSYQIHKAISRNEKLTIKYASFSGIDDQSTKEEISKIFNNQLLKNKTRELFLKSTSVGPHHDDLKFSINGKEVGSFASQGQQRTTALSVRLAEIEMMKYETGEYPILLLDDVLSELDGDRQTQLLNFIQDKVQTFLTTTSLSDVERDLIKDPKIYQVKGGTLVNG | not soluble
11 | MASPDEDNPGILYNGRFDFSDPNGPKCAWSGSNVELNFYGTEASVTIKSGGENWFQAIVDGNPLPPFSVNATTSTVKLVSGLAEGAHHLVLWKRTEASLGEVQFLGFDFGSGKLLAAPKPLERKIEFIGDSITCAYGNEGTSKEQSFTPKNENSYMSYAAITARNLNASANMIAWSGIGLTMNYGGAPGPLIMDRYPYTLPYSGVRWDFSKYVPQVVVINLGTNDFSTSFADKTKFVTAYKNLISEVRRNYPDAHIFCCVGPMLWGTGLDLCRSYVTEVVNDCNRSGDLKVYFVEFPQQDGSTGYGEDWHPSIATHQLMAERLTAEIKNKLGWLEHHHHHH | soluble
12 | MGSDKIHHHHHHEITDGVVRIGVLNDQTGVYAGLAGPGSVWAAKKAVQDFAPEKHGLKVEIVAADHQNKPDVGASIARRWFDVDKVDAIVDVPTSSVVLAVNQVAKEKNKVMIVTGGGTSDLTGKACTPNAIHWAYDTWALANGTGKAVVKSGGKSWFFVTADYAFGHSLERDTEAVVVKNGGKVLGKVRHPFPGNDFSSYLLQAQASKAQVVGLANAGGDTIGAVKQAAEFGVTAGGQKLAGLLVFSSDVQALGLKAAQGLLLSETWYWDMTDENRKFGKEFAAANNGKFPTMAQAGTYSAVIHYLKAVAAMKADGDGAAVVAKMKAMPTDDKLFGKGSIREDGRKIHPLYLFEVKKPSESKYAGDFYKLIATIPATEAFRPMEEGGCPLIGKKAS | not soluble
13 | MPKYYEDKPQGGACAGLKEDLGACLLQSDCVVQEGKSPRQCLKEGYCNSLKYAFFECKRSVLDNRARFRGRKGY | not soluble
14 | MAFDDLRSFLQALDDHGQLLKISEEVNAEPDLAAAANATGRIGDGAPALWFDNIRGFTDARVAMNTIGSWQNHAISLGLPPNTPVKKQIDEFIRRWDNFPIAPERRANPAWAQNTVDGEEINLFDILPLFRLNDGDGGFYLDKACVVSRDPLDPDNFGKQNVGIYRMEVKGKRKLGLQPVPMHDIALHLHKAEERGEDLPIAITLGNDPIITLMGATPLKYDQSEYEMAGALRESPYPIATAPLTGFDVPWGSEVILEGVIESRKREIEGPFGEFTGHYSGGRNMTVVRIDKVSYRSKPIFESLYLGMPWTEIDYLLEHHHHHH | not soluble
